Data as given in US11994512B2, “Single-cell genomic methods to generate ex vivo cell systems that recapitulate in vivo biology with improved fidelity” (Massachusetts Institute of Technology, priority 2018, dated 2024).

B1: Q9R098 (protein, UniProt Q9R098 1-653, looked up)
chain: MGRQAWISSLCPLPRPCPFLLLLLLLVVPRGAQPQAGRNHTEPPGPNVTATPVTPTIPVISGNVSTSTESAPAAETEGPQSERYPPPSSSSPPGGQVLTESGQPCRFPFRYGGRMLHSCTSEGSAYRKWCATTHNYDRDRAWGYCAEVTLPVEGPAILDPCASGPCLNGGTCSSTHDHGSYHCSCPLAFTGKDCGTEKCFDETRYEYFEVGDHWARVSEGHVEQCGCMEGQARCEDTHHTACLSSPCLNGGTCHLIVGTGTSVCTCPLGYAGRFCNIVPTEHCFLGNGTEYRGVASTAASGLSCLAWNSDLLYQELHVDSVAAAVLLGLGPHAYCRNPDKDERPWCYVVKDNALSWEYCRLTACESLARVHSQTPEILAALPESAPAVRPTCGKRHKKRTFLRPRIIGGSSSLPGSHPWLAAIYIGNSFCAGSLVHTCWVVSAAHCFANSPPRDSITVVLGQHFFNRTTDVTQTFGIEKYVPYTLYSVFNPNNHDLVLIRLKKKGERCAVRSQFVQPICLPEAGSSFPTGHKCQIAGWGHMDENVSSYSNSLLEALVPLVADHKCSSPEVYGADISPNMLCAGYFDCKSDACQGDSGGPLVCEKNGVAYLYGIISWGDGCGRLNKPGVYTRVANYVDWINDRIRPPKRPVATS
modifications: full-length
B2: Q9QXV0 (protein, UniProt Q9QXV0 1-258, looked up)
chain: MAGSPLLCGPRAGGVGILVLLLLGLLRLPPTLSARPVKEPRSLSAASAPLVETSTPLRLRRAVPRGEAAGAVQELARALAHLLEAERQERARAEAQEAEDQQARVLAQLLRAWGSPRASDPPLAPDDDPDAPAAQLARALLRARLDPAALAAQLVPAPAAAPRPRPPVYDDGPTGPDVEDAGDETPDVDPELLRYLLGRILTGSSEPEAAPAPRRLRRSVDQDLGPEVPPENVLGALLRVKRLENPSPQAPARRLLPP
modifications: full-length
B3: Q9R022 (protein, UniProt Q9R022 1-198, looked up)
chain: MDAILNYRPEGSEDYYALLGCDELSSVEQILAEFKIRALECHPDKHPENSKAVETFQKLQKAKEILCNAESRARYDHWRRSQMSMPFEQWEALADSVKTSMHWAVRSKKDLMLEGSGQTFTSSVPNKERSEQRETKKGDPDSNPEKMKQKEPKFPEEGISPQNPDSPGLSDLNCGHLRFRWSGDAPSELLRKFRNYEI
modifications: full-length
B4: Q9QYY9 (protein, UniProt Q9QYY9 1-377, looked up)
chain: MGTQGKVIKCKAAIAWKTGSPLCIEEIEVSPPKACEVRIQVIATCVCPTDINATDPKKKALFPVVLGHECAGIVESVGPGVTNFKPGDKVIPFFAPQCKRCKLCLSPLTNLCGKLRNFKYPTIDQELMEDRTSRFTCKGRSIYHFMGVSSFSQYTVVSEANLARVDDEANLERVCLIGCGFSSGYGAAINTAKVTPSSTCAVFGLGCVGLSAIIGCKIAGASRIIAIDINGEKFPKAKALGATDCLNPRELDKPVQDVITELTAGGVDYSLDCAGTAQTLKAAVDCTVLGWGSCTVVGAKVDKMTIPTVDVILGRSINGTFFGGWKSVDSVPNLVSDYKNKKFDLDLLVTHALPFESINDAIDLMKEGKSIRTILTF
modifications: full-length
B5: Q9QXE2 (protein, UniProt Q9QXE2 1-573, looked up)
chain: MDPQGIVKAFPKRKKSHADLSSKALAKIPKREVGEARGWLSSLRAHIMPAGIGRARAELFEKQIIHHGGQVCSAQAPGVTHIVVDEDMDYERALRLLRLPQLPPGAQLVKSTWLSLCLQEGRLTDTEGFSLPMPKRSLDEPQPSKSGQDASAPGTQRDLPRTTLSLSPPHTRAVSPPPTAEKPSRTQAQLSSEDETSDGEGPQVSSADLQALITGHYPTPPEEDGGPDPAPEALDKWVCAQPSSQKATNYNLHITEKLEVLAKAYSVQGDKWRALGYAKAINALKSFHKPVSSYQEACSIPGIGKRMAEKVMEILESGHLRKLDHISDSVPVLELFSNIWGAGTKTAQMWYHQGFRNLEDLQSLGSLTAQQAIGLKHYDDFLDRMPREEAAEIEQTVRISAQAFNPGLLCVACGSYRRGKMTCGDVDVLITHPDGRSHRGIFSCLLDSLRQQGFLTDDLVSQEENGQQQKYLGVCRLPGPGKRHRRLDIIVVPYCEFACALLYFTGSAHFNRSMRALAKTKGMSLSEHALSAAVVRNSQGVKVGPGQVLPTPTEKDVFKHLGLPYREPAERDW
modifications: full-length
B6: Q9QYB2 (protein, UniProt Q9QYB2 1-751, looked up)
chain: MAVPAALIPPTQLVPPQPPISTSASSSGTTTSTSSATSSPAPSIGPPASSGPTLFRPEPIASSASSSAAATVTSPGGGGGGSGGGGGSGGNGGGGGSNCNPSLAAGSSGGGVSAGGGGASSTPITASTGSSSSSSSSSSSSSSSSSSSSSSSSSSSCGPLPGKPVYSTPSPVENTPQNNECKMVDLRGAKVASFTVEGCELICLPQAFDLFLKHLVGGLHTVYTKLKRLEITPVVCNVEQVRILRGLGAIQPGVNRCKLISRKDFETLYNDCTNASSRPGRPPKRTQSVTSPENSHIMPHSVPGLMSPGIIPPTGLTAAAAAAAAATNAAIAEAMKVKKIKLEAMSNYHASNNQHGADSENGDMNSSVGSSGGSWDKETLHSPPSQGSQAPVAHARMPAAFSLPVSHPLNHLQHSHLPPNGLELPFMMMPHPLIPVSLPPASVTMAMSQMNHLSTIANMAAAAQVQSPPSRVETSVIKERVPDSPSPAPSLEEGRRPGSHPSSHRSSSVSSSPARTESSSDRIPVHQNGLSMNQMLMGLSPNVLPGPKEGDLAGHDMGHESKRIHIEKDETPLSTPTARDSIDKLSLTGHGQPLPPGFPSPFLFPDGLSSIETLLTNIQGLLKVAIDNARAQEKQVQLEKTELKMDFLRERELRETLEKQLAMEQKNRAIVQKRLKKEKKAKRKLQEALEFETKRREQAEQTLKQAASADSLRVLNDSLTPEIEADRSGGRADAERTIQDGRLYLKTTVMY
modifications: full-length
B7: Q9WVJ3 (protein, UniProt Q9WVJ3 1-470, looked up)
chain: MRSLFFLFIVHLLALGSGKAVFKNGVSQRTFREIKEEIANYEDVAKAIINLAVYGKYQNRSYERLGLLVDTVGPRLSGSKNLEKAIQIMYQNLQQDGLENVHLEQVRIPHWERGEESAVMLEPRIHKMAILGLGSSIGTPPGGITAEVLVVASFDELQRRASEARGKIIVYNQPYTGYEKTVQYRVQGAVEAAKVGAVASLIQSVASFSIYSPHTGIQKYQDGVPKIPTACITVEDAEMMSRMASRGNKIVIHLEMGAKTYPDTDSFNTVAEITGSMYPEEVVLVSGHLDSWDVGQGALDDGGGAFISWEALSLVKDLGLRPKRTLRLVLWTAEEQGGIGASQYYELHKANISKYSLVMEADSGTFLPTGLQFTGSDKARAIMKEVMNLLQPLNVTKVFSNGEGTDINFWIQAGVPGASLRDDLYKYFFFHHSHGDTMTVMDPKQMNVAAAVWAVVAYVVADMDEMLPRS
modifications: full-length
B8: Q9QXD6 (protein, UniProt Q9QXD6 1-338, looked up)
chain: MANHAPFETDISTLTRFVMEQGRKAQGTGELTQLLNSLCTAIKAISSAVRQAGIAQLYGIAGSTNVTGDQVKKLDILSNDLVINMLKSSYATCVLVSEENTNAIIIEPEKRGKYVVCFDPLDGSSNIDCLVSIGTIFGIYRKKSTDEPSEKDALQPGRDLVAAGYALYGSATMLVLAMDCGVNCFMLDPSIGEFIMVDRDVKMKKKGNIYSLNEGYAKDFDPAINEYLQRKKFPPDGSAPYGARYVGSMVADIHRTLVYGGIFLYPANKKSPSGKLRLLYECNPIAYVMEKAGGLATTGDKDILDIVPTEIHQKAPVVMGSSEDVQEFLEIYRKHKAK
modifications: full-length

The molecules below were run on intracellular proteome of ENR+CD and ENR organoids (assay: LC-MS/MS TMT proteomics of ENR+CD versus ENR organoids). Details: ENR+CD versus ENR organoids, sample pairs in aggregate (n=4, 2 technical replicates from two biological donors).
Format: cell-based, C57BL/6 mice

Row | Molecule | Average logFC
1 | B1 | 1.366
2 | B2 | 1.274
3 | B3 | 1.154
4 | B4 | −1.654
5 | B5 | 1.478
6 | B6 | 1.286
7 | B7 | 1.351
8 | B8 | −1.895

Same assay, conditions: protein abundance ratio ENR+CD versus ENR organoids, sample pair M1-1; LC-MS/MS TMT proteomics

Row | Molecule | M1-1 Log2 Median Normalized
9 | B1 | 1.864
10 | B2 | 1.444
11 | B3 | 1.573
12 | B4 | −1.109
13 | B5 | 0.861
14 | B6 | 0.838
15 | B7 | 1.348
16 | B8 | −1.892

Same assay, conditions: protein abundance ratio ENR+CD versus ENR organoids, sample pair M1-2; LC-MS/MS TMT proteomics

Row | Molecule | M1-2 Log2 Median Normalized
17 | B1 | 1.188
18 | B2 | 0.883
19 | B3 | 1.212
20 | B4 | −2.606
21 | B5 | 1.509
22 | B6 | 1.286
23 | B7 | 0.221
24 | B8 | −2.49

Same assay, conditions: protein abundance ratio ENR+CD versus ENR organoids, sample pair M2-1; LC-MS/MS TMT proteomics

Row | Molecule | M2-1 Log2 Median Normalized
25 | B1 | 0.7445
26 | B2 | 1.5975
27 | B3 | 0.6885
28 | B4 | −2.0305
29 | B5 | 1.4485
30 | B6 | 1.3505
31 | B7 | 2.1645
32 | B8 | −2.2475

Same assay, conditions: protein abundance ratio ENR+CD versus ENR organoids, sample pair M2-2; LC-MS/MS TMT proteomics

Row | Molecule | M2-2 Log2 Median Normalized
33 | B1 | 1.669
34 | B2 | 1.172
35 | B3 | 1.141
36 | B4 | −0.87
37 | B5 | 2.093
38 | B6 | 1.402
39 | B7 | 1.67
40 | B8 | −0.495

Same assay, conditions: up = enriched in ENR+CD, down = enriched in ENR; FDR<0.05 and log fold change cut-off

Row | Molecule | change
41 | B1 | up
42 | B2 | up
43 | B3 | up
44 | B4 | down
45 | B5 | up
46 | B6 | up
47 | B7 | up
48 | B8 | down
